Experimental data: the supplement of paper PMC12636428

Tested on: Saccharomyces cerevisiae
Experiment: transcriptional activation domain activity (GFP:mCherry ratio, weighted mean of sorted bins, harmonized to initial dataset scale) (arbitrary fluorescence ratio units); higher = stronger transcriptional activation
Settings: beta-estradiol 1 µM; induction time 4 h
Experimental: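 53-aa protein tiles (fungal proteins plus yeast TF control tiles) fused C-terminally to a DBD-estrogen-binding domain-mCherry synthetic TF, integrated in S. cerevisiae (URA3 locus) with a GFP reporter. Cells were induced with 1 uM beta-estradiol for 4 h at 30 C, FACS-sorted into 8 bins by GFP:mCherry ratio and barcodes sequenced. Activity is the read-weighted mean bin fluorescence (GFP:mCherry), averaged over barcodes (median 12); tiles under 50 reads were discarded. New active-learning values were harmonized by linear fit onto the scale of the initial (Hummel et al.) dataset. The assay saturates at low and high signal.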

| Sequence | transcriptional activation domain activity |
| --- | --- |
| MSEPPRKRAKLACVTCNARRVKCDVTERQPCGNCVAGKILCETRESKRGKHPR | 33800 |
| MAKGGAKDKKSVEKKGADKGKGKSDEAADKGSKGKGGLKAATAVNVRHILCEK | 23500 |
| HLLSPHIAPELIELLVVRTFLQPHPWPVPSCATTGFLRTLAWISRWAWRHSPL | 43900 |
| MDLVILMVYLNNNNNILIIIIMISTLIIHQLVQLIYLNLWLGCILWKTVLCSG | 42900 |
| MGVLFCVWSKFMGLHYSLVFFFVYPFSHCFSLLFPFFFFTIMSWYIVFYHTCF | 70300 |
| PAAEEVAAAPAHEEPALPKHEELEIEEADEPVHRAAPAERATAAPAAAPVKAP | 29700 |
| PIARESSSLFLANTPYLSDFLTMGSSYGGSGGFAKSITADPSLDYFNYKNHSH | 68600 |
| MVQNWEFFVFFFLPFNSFFSFFLPFCEVYMCAVCGLWCGSPGKLLGLFYFWFV | 36600 |
| MYLQWASCPLLICVSCFYTSLIYFAIISMSSMILTLVCLDRSMCWYSGWIFSS | 46000 |
| SSSDFVPVNFEADSLPYTPTTLDGLASLTSLEDLFSADDALASFDWSEWPWIY | 156000 |
| LSLWSHTCRHYCSVIRCKHICMILCHIRANNSLIGMIGILLVLNCTILPSNRV | 69900 |
| APKEETTKPTIEVKIDVGSRCEVESTEPGLSKRGTVRFVGQTSFGNGEGVWVG | 42200 |
| TVKEEEEEVKAKPAAAKVSRVRKAAAAKAQSEPEKDVAGPAPKTRAARTRAAS | 48100 |
| GRQSKDGKEGKEGKEGSGERRREEKKEAGRERGGEEGGKEGRGRQRAGASGGE | 25500 |
| GHWSYFRNSSMILNFFYKNIIGIGVLFWFQIFCGWSTTYVFAYVYLLFWNVFW | 51500 |
| LIGMDQDVLGRWSQVIGEKGEGSLFSLALGPHQSNWLVLIRQACLLLLRSVAA | 51200 |
| FDTRGAIYCSRPRMVMMCELMGWDAAFVLMPYTPRWRRHRRLFHQHFNEAVAN | 80200 |
| AGPARTGSSSSSSSSDEDKKKKKDKAEEKVEEKKEKPEEKAEDKKEASTAVAA | 23300 |
| KGGKRKRREEDDGEEKDSFGGRRGDDGPSRIAKNEGGDGRAGKHKRSGDDGKE | 31100 |
| MSPLPSPLSFPLFLFFSLSLSNLVCMPHPLLSSLSLSTPPALFFLYLFFLATL | 55100 |
| MGNGSVLLFLLFLCYGKGLGFFIFTFFFLFYLCIIYFFFPLFYYYLPLLSAGW | 67100 |
| RFISLAFFDVVSCSVWLSIYHLLVLRFFLDLQSCLSFLLLYIRPSFPCLLIPR | 50500 |
| LNILTSVWAVPVVITLIQALLVMRVCMLFCFNLRVTLCLWALLFASATVSVVL | 51200 |
| KAAAVVASDSDEPVEKPKPRRRNSTSSAKSGKSTKSNRSSRDKTAAGVAAGAG | 20700 |
| TSAFGNLGSSSSTPSVFGGAGAGTNNTGSGGGGGGGFSAFAGKPTAFGAGAAG | 39400 |
| SNAAWGVMITFFQIIGLFDKYPIYWDSRLGDVVKAVSITILNTDYINLQCAYG | 73900 |
| LVHNTLCMLDLIPLLSVRLLLMSLSICFGWYTIFVFAAGVIETVHLTIGRTFT | 33900 |
| SSWIKWVFLFARYFPLLAGLCGRIIDSIVLYKHPIPIPLNALRIWYICQVLII | 59300 |
| LSRKASELRHATRNWALHSKHEEWNVSFRELARKYLIRPFLLMINPVCFLMSF | 74700 |
| MRAKNLTWTTLIYFSTVLWFVGDLVTNNHVRLVGVWSECKLWILWFRVFFVYV | 84300 |
